B1: Hairpin Ribozyme (parent)
chain: GUCCUCUUUCACGUGCGCGUGAAAGAGAGAAGUGAACCAGAGAAACACACGUUGUGGUAUAUUACCUGGUA

Variants of: B1
Test: self-cleavage, relative activity (ratio to wild type); higher = more cleavage; co-transcriptional
GUCCUCUUUCACGUGCGCGUGAAAGAGAGAAGUGAACCAGAGGAACACACGUUGUGGUAUAUUACCUGGAA gave a self-cleavage of 0.225. GUCCCCUUUCACGUGCGCGUGAAAGAGAGAUGUGAACCAGAGAAACACACGUUGUGGUAUAUUACCUGGUA gave a self-cleavage of 0.0715. Work on GUUCUCUUUCACGUGCGCGUGAAAGAGAGAAGUGAACCAGAGAAACACACGUUGUGGUAUAUUAGCUGGUA yielded a self-cleavage of 0.153. In the case of GACCUCUUUCACGUGCGCGUGAAAGUGAGAAGUGAACCAGAGAAACACACGUUGUGGUAUAUUACCUGGUA, the self-cleavage is reported as 0.253. GUCCUCUUUCACGUGCGCGUGAAAGAGAUAAGUGAACCAGAGAAACGCACGUUGUGGUAUAUUACCUGGUA gave a self-cleavage of 0.0517. For GUCCUCUGUCACGUGCGCGUGAAAGAGAGAAGUGAACCAGAGAAACACACGUGGUGGUAUAUUACCUGGUA, the self-cleavage was 0.705. With GUCCUCUUUCACGUGCGCGAGAAAGAGAGAAGUGAACCAGAGAAACACACGUUGUGGUAUAUUACCUGGUU the self-cleavage was 0.735. GUCCUCUUUCACGUGCGCGUGAAGGAGAGAAGUGAACCAGAGAGACACACGUUGUGGUAUAUUACCUGGUA gave a self-cleavage of 0.152. Variant GUCCUCUUUCACGUGCGCGCGAAAGAGAGAAGUGAACUAGAGAAACACACGUUGUGGUAUAUUACCUGGUA has a self-cleavage of 0.415. Work on GUCCUCUUUCACGUGCGCGUGAAAGAGAGAAGUGAACCAGAGAAACACACGUUCUGGUAUAUUACCUAGUA yielded a self-cleavage of 0.187. GUCCUCUUUCAGGUGCGCGUGAAAGAGAGAAGUGAACCAGAGAAACACACGUUGCGGUAUAUUACCUGGUA gave a self-cleavage of 0.216. GUCCUCUUUCACGUGCGCGUGAAAGAGAGCAGUGAACCAGAAAAACACACGUUGUGGUAUAUUACCUGGUA gave a self-cleavage of 0.0752. With GUCCUCUUUCACGUGCGCGCGAAAGAGAGAAGUGAACCAGAGAAACUCACGUUGUGGUAUAUUACCUGGUA the self-cleavage was 0.161. GUCCUCUUUCACAUGGGCGUGAAAGAGAGAAGUGAACCAGAGAAACACACGUUGUGGUAUAUUACCUGGUA showed a self-cleavage of 0.593. Work on GUCCUCUUUCACGUGCGCGUGUAAGAGAGAAGUGAACCAGAGAAACACACGUUGUGGUAUCUUACCUGGUA yielded a self-cleavage of 0.171. For GUCCUCUUUCACGUGCGCGUGAAAGAGAGAAGUGAACCAGAGAAACACACGUUAUGGUAUAUCACCUGGUA, the self-cleavage was 0.216. With GUACUCUUUCACGUGCGCGUGAAAGAGAGAAGUGAACCAGAGAAACACACGUUGUGGUAUAUUACCUGGCA the self-cleavage was 0.675. With AUCCUCUUACACGUGCGCGUGAAAGAGAGAAGUGAACCAGAGAAACACACGUUGUGGUAUAUUACCUGGUA the self-cleavage was 0.198. Variant GUCCUCUUUCACGUGCGCGUGAAAGAGAGAAGUGAACCAGACAAAAACACGUUGUGGUAUAUUACCUGGUA has a self-cleavage of 0.166. GUCCUCUUUCACGUGCGCGUGAAAGAGAGAAGUGAACCAGAGAAGCACACGUUGUGCUAUAUUACCUGGUA showed a self-cleavage of 0.0828. With GUCCUCUUUCACGUGCGCGUGAAUGAGAGAAGUGAACCAGAGAAACACACUUUGUGGUAUAUUACCUGGUA the self-cleavage was 0.78. In the case of GUCCUCUUUCACGUGCGCGUGAAAGAGAGAAGUGAACCAGAGAAACGCACGUUGUGGUAUAUUACCUGGUG, the self-cleavage is reported as 0.142. For GGCCUCUUUCACGUGCGCGUGAAAGAGAGAAGUGAACCAGGGAAACACACGUUGUGGUAUAUUACCUGGUA, the self-cleavage was 0.38. GUCCUUUUUCACGUUCGCGUGAAAGAGAGAAGUGAACCAGAGAAACACACGUUGUGGUAUAUUACCUGGUA showed a self-cleavage of 0.814. For GUCCUCUUUAACGUGCGCGUGAAAGAGAGAAGUGAACCAGAGAAACACACGUUGUGGUAUAUUACCGGGUA, the self-cleavage was 0.171. Variant GUCGUCUUUAACGUGCGCGUGAAAGAGAGAAGUGAACCAGAGAAACACACGUUGUGGUAUAUUACCUGGUA has a self-cleavage of 0.12. In the case of GUCCUCUUUCACGUGCGCGUGAAAGAGAGAAGUGAACCAGAGAAACACGCGUUGUGGUAUAUUACCUGGCA, the self-cleavage is reported as 0.262. For GUCCUCUUUCACGUGCGCGUGAAAGAUAGAAGUGACCCAGAGAAACACACGUUGUGGUAUAUUACCUGGUA, the self-cleavage was 0.0992. Variant GUCCUCUUUCACGUGCGCGUGAAAGAGAAAAGUGAACCAGAGAAAUACACGUUGUGGUAUAUUACCUGGUA has a self-cleavage of 0.238. Work on GUCCUCUUUCACGUGCGCGUGAAAGACAGAAGUGAACCAGAGAAACACACGUUGUGGUAUAUUACUUGGUA yielded a self-cleavage of 0.162. Work on GUCCUCUUUCACAUGCGCGUGAAAGAGAGAAGUGAACCAGAGAAACACACGUUGUGGUAUAUUACCCGGUA yielded a self-cleavage of 0.27. For GUCCUCUUUCACGUGCGCGUGCAAGAGAGAAGUGAACCGGAGAAACACACGUUGUGGUAUAUUACCUGGUA, the self-cleavage was 0.362. In the case of GUCCUCUUUCACGUGCGCGUGAAAGAGAGAAGUGAACCAGAGAAACACACGUUGUGGUAUAAUACCUAGUA, the self-cleavage is reported as 0.187. Work on GUCCUCUUUCACGUGCGCGUGAAAGAGAGACGUGCACCAGAGAAACACACGUUGUGGUAUAUUACCUGGUA yielded a self-cleavage of 0.069. GUGCUCUUUGACGUGCGCGUGAAAGAGAGAAGUGAACCAGAGAAACACACGUUGUGGUAUAUUACCUGGUA gave a self-cleavage of 0.182. With GUCCUCUUACACGUGCGCGAGAAAGAGAGAAGUGAACCAGAGAAACACACGUUGUGGUAUAUUACCUGGUA the self-cleavage was 0.605. Variant GUCCUCUUUCACGUGCGCGUGAAAGAGAGAAGUGAACCAGAGAAAAACACGUUGUGGUAUAUUACCUGGUG has a self-cleavage of 0.24. For GUCCUCUUUCACGUGCGCGUGAAAGAGAGAAGUGAAACAGAGAAACACACGUUGUGGUAUAAUACCUGGUA, the self-cleavage was 0.133.
